According to article PMC3570547, “An Experimental Verification of the Predicted Effects of Promoter TATA-Box Polymorphisms Associated with Human Diseases on Interactions between the TATA Boxes and TATA-Binding Protein”:

B1: MBL2 TATA WT (dsDNA)
DNA 1: CATCTATTTCTATATAGCCTGCACCC
DNA 2: GGGTGCAGGCTATATAGAAATAGATG
B2: HBB -29A>G (dsDNA)
DNA 1: CAGGGCTGGGCATGAAAGTCAGGGCA
DNA 2: TGCCCTGACTTTCATGCCCAGCCCTG
B3: globin pseudogene TATA WT (dsDNA)
DNA 1: CTGCCACACCCACATTATTAGAAAAT
DNA 2: ATTTTCTAATAATGTGGGTGTGGCAG
B4: HBD -31A>G (dsDNA)
DNA 1: ACAGGACCAGCGTAAAAGGCAGGGCA
DNA 2: TGCCCTGCCTTTTACGCTGGTCCTGT
B5: CYP2A6 TATA WT (dsDNA)
DNA 1: TTTCAGGCAGTATAAAGGCAAACCAC
DNA 2: GTGGTTTGCCTTTATACTGCCTGAAA
B6: globin pseudogene -70T>C (dsDNA)
DNA 1: CTGCCACACCCACATTATCAGAAAAT
DNA 2: ATTTTCTGATAATGTGGGTGTGGCAG
B7: HBB -28A>C (dsDNA)
DNA 1: CAGGGCTGGGCATACAAGTCAGGGCA
DNA 2: TGCCCTGACTTGTATGCCCAGCCCTG
B8: HBD TATA WT (dsDNA)
DNA 1: ACAGGACCAGCATAAAAGGCAGGGCA
DNA 2: TGCCCTGCCTTTTATGCTGGTCCTGT
B9: FIX TATA WT (dsDNA)
DNA 1: ACAGCTCAGCTTGTACTTTGGTACAA
DNA 2: TTGTACCAAAGTACAAGCTGAGCTGT
B10: TPI TATA WT (dsDNA)
DNA 1: CGCGGCGCTCTATATAAGTGGGCAGT
DNA 2: ACTGCCCACTTATATAGAGCGCCGCG
B11: HBB -31A>G (dsDNA)
DNA 1: CAGGGCTGGGCGTAAAAGTCAGGGCA
DNA 2: TGCCCTGACTTTTACGCCCAGCCCTG
B12: CYP2A6 -48T>G (dsDNA)
DNA 1: TTTCAGGCAGTAGAAAGGCAAACCAC
DNA 2: GTGGTTTGCCTTTCTACTGCCTGAAA
B13: HBB -27A>T (dsDNA)
DNA 1: CAGGGCTGGGCATAATAGTCAGGGCA
DNA 2: TGCCCTGACTATTATGCCCAGCCCTG
B14: IL1B TATA WT (dsDNA)
DNA 1: TTTTGAAAGCCATAAAAACAGCGAGG
DNA 2: CCTCGCTGTTTTTATGGCTTTCAAAA
B15: TF TATA WT (-21C) (dsDNA)
DNA 1: GCCGGCCCTTTATAGCGCGCGGGGCA
DNA 2: TGCCCCGCGCGCTATAAAGGGCCGGC
B16: HBB -30T>A (dsDNA)
DNA 1: CAGGGCTGGGCAAAAAAGTCAGGGCA
DNA 2: TGCCCTGACTTTTTTGCCCAGCCCTG
B17: NOS2A TATA WT (dsDNA)
DNA 1: ATGGGGTGAGTATAAATACTTCTTGG
DNA 2: CCAAGAAGTATTTATACTCACCCCAT
B18: TPI -24T>G (dsDNA)
DNA 1: CGCGGCGCTCTATAGAAGTGGGCAGT
DNA 2: ACTGCCCACTTCTATAGAGCGCCGCG
B19: SOD1 -27A>G (dsDNA)
DNA 1: AGGTCTGGCCTGTAAAGTAGTCGCGG
DNA 2: CCGCGACTACTTTACAGGCCAGACCT
B20: IL1B -31C>T (dsDNA)
DNA 1: TTTTGAAAGCTATAAAAACAGCGAGG
DNA 2: CCTCGCTGTTTTTATAGCTTTCAAAA
B21: SOD1 TATA WT (dsDNA)
DNA 1: AGGTCTGGCCTATAAAGTAGTCGCGG
DNA 2: CCGCGACTACTTTATAGGCCAGACCT
B22: TF -21C>T (dsDNA)
DNA 1: GCCGGCCCTTTATAGTGCGCGGGGCA
DNA 2: TGCCCCGCGCACTATAAAGGGCCGGC
B23: HBB TATA WT (dsDNA)
DNA 1: CAGGGCTGGGCATAAAAGTCAGGGCA
DNA 2: TGCCCTGACTTTTATGCCCAGCCCTG
B24: NOS2A -21T>C (dsDNA)
DNA 1: ATGGGGTGAGTATAAATACCTCTTGG
DNA 2: CCAAGAGGTATTTATACTCACCCCAT
B25: HBB -30T>C (dsDNA)
DNA 1: CAGGGCTGGGCACAAAAGTCAGGGCA
DNA 2: TGCCCTGACTTTTGTGCCCAGCCCTG
B26: HBB -28A>G (dsDNA)
DNA 1: CAGGGCTGGGCATAGAAGTCAGGGCA
DNA 2: TGCCCTGACTTCTATGCCCAGCCCTG
B27: MBL2 -35T>C (dsDNA)
DNA 1: CATCTATTTCTACATAGCCTGCACCC
DNA 2: GGGTGCAGGCTATGTAGAAATAGATG

Target: TBP (TATA-binding protein, hTBP) (Homo sapiens, UniProt P20226 1-339)
Sequence (P20226 whole entry): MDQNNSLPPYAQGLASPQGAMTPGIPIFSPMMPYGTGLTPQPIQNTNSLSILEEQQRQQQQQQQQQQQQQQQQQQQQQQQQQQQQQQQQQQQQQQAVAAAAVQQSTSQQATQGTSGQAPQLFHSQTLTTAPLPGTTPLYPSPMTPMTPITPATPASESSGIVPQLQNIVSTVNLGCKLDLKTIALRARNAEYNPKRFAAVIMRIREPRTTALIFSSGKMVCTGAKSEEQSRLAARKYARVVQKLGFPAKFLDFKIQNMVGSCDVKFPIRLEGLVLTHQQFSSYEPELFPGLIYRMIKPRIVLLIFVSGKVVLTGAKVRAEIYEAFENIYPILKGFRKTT
Test: EMSA; Fixed active TBP (typically 0.3 nM) titrated with 32P dsDNA to equilibrium; buffer, salt, pH and temperature not given in the material
Settings: protein: recombinant; label: 32P both strands; blunt

Binder | Kd [nM]
B1 | 28 ± 4
B2 | 390 ± 20
B3 | 152 ± 6
B4 | 120 ± 10
B5 | 17 ± 4
B6 | 112 ± 6
B7 | 300 ± 20
B8 | 46 ± 5
B9 | 510 ± 60
B10 | 4.8 ± 0.7
B11 | 99 ± 9
B12 | 80 ± 20
B13 | 64 ± 3
B14 | 29 ± 4
B15 | 72 ± 9
B16 | 116 ± 5
B17 | 1.8 ± 0.2
B18 | 150 ± 20
B19 | 170 ± 30
B20 | 7 ± 1
B21 | 40 ± 8
B22 | 26 ± 3
B23 | 44 ± 3
B24 | 1.6 ± 0.3
B25 | 111 ± 8
B26 | 87 ± 8
B27 | 58 ± 9
